The values below come from US20210095032A1 (SALUBRIS CHENGDU BIOTECH, published 2021).

Like-named read-outs stand apart in the source and are kept apart here.

The target in assay [1] is T1, human PD-1 on PD-1 Effector Cell Line (Genscript, GS-J2/PD-1) (human, UniProt Q15116 25-288). Put plainly: cell-based or functional assay.
In assay [2] the target is T1, human PD-1 on PD-1 Effector Cell Line …. Kind of assay: cell-based or functional assay. This is another data set of the same source.
Assay [3] shares this target. Kind of assay: cell-based or functional assay. The source holds these as a separate data set.
The target of assay [4] is T2, recombinant human PD-1-his (Sino biological, #10377-H08H) (human, UniProt Q15116 25-167).
T2 construct: Bought protein; also called Human PD-1-his protein; not shown: his tag
Kind of assay: SPR (Biacore), antibody captured, human PD-1-his flowed. From the text:
(§1) Briefly, goat anti-mouse IgG (GE healthcare, Cat #BR100839, Human Antibody Capture Kit) was covalently linked to a CMS chip (carboxy methyl dextran coated chip) via primary amines, using a standard amine coupling kit (GE healthcare, Pittsburgh, Pa., USA) provided by Biacore. Un-reacted moieties on the biosensor surface were blocked with ethanolamine. […] Then, recombinant human PD-1-his (Sino biological, #10377-H08H) or cynomolgus monkey PD-1-his protein (Acro biosystems, #PD-1-05223) in HBS EP buffer (provided by Biacore) was flowed onto the chip at a flow rate of 30 μL/min. The antigen-antibody association kinetics was followed for 2 minutes and the dissociation kinetics was followed for 10 minutes. The association and dissociation curves were fit to a 1:1 Langmuir binding model using BIA evaluation software.
Background: In SPR one partner is held on a chip, and binding of the other changes the refractive index at the surface.

The target in assay [5] is T3, cynomolgus monkey PD-1-his protein (Acro biosystems, #PD-1-05223) (cynomolgus monkey, UniProt B0LAJ3 25-170).
T3 construct: Bought protein; also called Cynomolgus PD-1; Cynomolgus PD1
Kind of assay: SPR (Biacore), antibody captured, cynomolgus PD-1-his flowed.
Excerpt: as §1

Assay [6] deals with T2, recombinant human PD-1-his (Sino …). Kind of assay: SPR (Biacore T200), antibody captured, PD-1-his flowed, 1:1 Langmuir fit.
Excerpt: as §1

Assay [7] concerns the target T3, cynomolgus monkey PD-1-his protein …. Described as above.
Excerpt: as §1

Assay [8] has as its target T4, biotin-labeled human PD-1 Fc protein (human, biotin-labeled (site not stated)).
T4 construct: also called PD-1-Fc-biotin
Kind of assay: capture ELISA, antibody captured on plate, biotin-labeled human PD-1 Fc in solution. Here is the method:
(§2) Plates were washed 4 times with wash buffer (PBS+0.05% Tween-20, PBST) and then blocked with 200 μl/well blocking buffer (5% w/v non-fatty milk in PBST) for 2 hours at 37° C. […] After a final wash, plates were incubated with 100 μl/well ELISA substrate TMB (Innoreagents). The reaction was stopped in 15 minutes at 25° C. with 50 μl/well 1M H₂SO₄, and the absorbance was read at 450 nm. Data were analyzed using Graphpad Prism software and EC₅₀ values were reported.

Assay [9] deals with T4, biotin-labeled human PD-1 Fc protein. The description is as above. On the procedure:
as §2
This is another data set of the same source.

For assay [10] the target is unchanged. The assay is described as above. On the procedure: as §2
This is another data set of the same source.

Assay [11] shares this target. The assay is described as above. On the procedure: as §2
This is another data set of the same source.

For assay [12] the target is unchanged. The assay is described as above. On the procedure:
as §2
This is another data set of the same source.

The target is the same in assay [13]. Described as above. On the procedure: as §2
This is another data set of the same source.

Assay [14] shares this target. Put plainly: competition ELISA, antibody + biotin human PD-1 Fc on coated Nivolumab (competitor Nivolumab). Here is the method:
(§3) The next day, plates were washed with wash buffer, and blocked with 5% non-fatty milk in PBST for 2 hours at 37° C. […] Plates were finally washed using wash buffer. TMB was added and the reaction was stopped using 1M H₂SO₄, and the absorbance was read at 450 nm. Data were analyzed using Graphpad Prism software and IC₅₀ values were reported.

For assay [15] the target is unchanged. The description is as above. Here is the method: as §3
The source holds these as a separate data set.

The target is the same in assay [16]. Described as above. On the procedure: as §3
The source holds these as a separate data set.

Assay [17] has the same target. Put plainly: competition ELISA, antibody + biotin human PD-1-Fc on coated human PD-L1-Fc (competitor PD-L1-Fc). Here is the method: (§4) The next day, plates were washed with wash buffer (PBS+0.05% Tween-20, PBST), and blocked with 5% non-fatty milk in PBST for 2 hours at 37° C. Plates were then washed again using wash buffer.
(§5) After incubation at 37° C. for 40 minutes, plates were washed for 4 times using wash buffer. […] Plates were washed again using wash buffer. Finally, TMB was added and the reaction was stopped using 1M H₂SO₄, and the absorbance was read at 450 nm. Data were analyzed using Graphpad Prism software and IC₅₀ values were reported.
Background: An ELISA detects its analyte on a solid surface through an enzyme-linked reagent.

For assay [18] the target is unchanged. Described as above. Here is the method:
as §4, §5
This is another data set of the same source.

Assay [19] has the same target. The assay is described as above. On the procedure:
as §4, §5
The source holds these as a separate data set.

Assay [20] has the same target. Put plainly: capture ELISA.
The target is the same in assay [21]. Put plainly: capture ELISA, antibody captured on plate, biotin-labeled human PD-1 Fc in solution. On the procedure: as §2
This is another data set of the same source.

B1: mouse anti-PD-1 monoclonal antibody D2H3 (antibody, V domains shown)
VH: EVQLQQSGTVLARPGASVKMSCKSSGYTFTNYWMHWVKQRPGQGLEWIGAIFPRNSETNYNQKFKAKAKLTAVTSASTAYMEVSSLTSEDSAVYFCTRNRYGLDYWGQGTSVTVSS
VL: DIVLTQSPGFLAVSLGQRATISCRASESVSLHGTRLMHWYHQKPGQPPKLLISLGSNLESGVPARFSGSGSETDFTLNIHPVEEEDAATYFCQQSIEDPWTFGGGTKLEIK
notes: Mouse antibody purified from a hybridoma; also called Mouse D2H3; mouse D2H3
Consider B1, for which the “Reporter Activation (EC50, nM), human PD-1 cell (NFAT-luc)/human PD-L1 cell” value in [1] turned out to be 3.02 nM. Further, in assay [2], the “Cell-based functional reporter assay (IC50, nM)” value stood at 8.48 nM. Also, the “Cell-based functional assay (EC50, nM)” value in assay [3] was found to be 8.48 nM. The Kd – broadly, the constant that tells how readily two partners part at equilibrium – in [4] amounted to 373 pM; in assay [5], 1460 pM; in assay [6], 373 pM; in assay [7] it was 1460 pM. Besides, the koff (usually the rate constant with which the complex falls apart) in assay [6] is 0.000122 s⁻¹; in assay [7] it was 0.000308 s⁻¹. Besides, the kon (usually the second-order rate constant of association) in assay [6] was 326000 M⁻¹ s⁻¹; in assay [7], 211000 M⁻¹ s⁻¹. The EC50 – broadly, the concentration needed to bring the measured effect to its halfway point – came to 150 pM in assay [8]; 170 pM in assay [9]; 0.18 ng/mL in assay [10]; 0.229 ng/mL in assay [11]; 0.388 ng/mL in assay [12]; 170 pM in assay [13]. The IC50 (usually the point on the concentration scale where inhibition reaches its midpoint) in assay [14] was 760 pM; in assay [15], 210 pM; in assay [16], 210 pM; in [17], 190 pM; in assay [18], 890 pM; in [19] it was 890 pM.

B2: huD2H3-V13 (antibody, human IgG1, kappa, V domains shown)
VH: EVQLVQSGAEVKKPGSSVKVSCKSSGYTFTNYWMHWVRQAPGQGLEWIGAIFPRNSETNYNQKFKARATLTADTSTSTAYMELSSLRSEDTAVYFCTRNRYGLDYWGQGTLVTVSS
VL: DIVMTQSPDSLAVSLGERATINCRASESVSLHGTRLMHWYQQKPGQPPKLLIYLGSNLESGVPDRFSGSGSGTDFTLTISSLQAEDVAVYYCQQSIEDPWTFGQGTKLEIKR
notes: Humanized D2H3, human IgG1/kappa; No EC50 is printed for this variant; it appears only in the sentences about the group
B2: the binding result in assay [20] is reported as “binds”.

B3: mouse anti-PD-1 monoclonal antibody D2A4 (antibody, V domains shown)
VH: EVKLVESGGGLVKPGGSLKLSCAASGFTFSSYTMSWVRQTPAKRLEWVATISGGGSNTYYPDSVKGRFTISRDNARNTLYLQMSSLRSEDTAMYYCARQAFYSNYWYFDVWGAGTTVTVSS
VL: DIQMTQSPASQSASLGESVTITCLASQTIGTWLAWYQQTPGKSPQLLIYAATSLADGVPSRFSGSGSGTKFSFKISSLQAEDFASYYCQQVSSIPWTFGGGTKLEIR
notes: Mouse antibody purified from a hybridoma; also called Mouse D2A4; mouse D2A4
In the case of B3, in assay [1], the “Reporter Activation (EC50, nM), human PD-1 cell (NFAT-luc)/human PD-L1 cell” value was 8.1 nM. The “Cell-based functional reporter assay (IC50, nM)” value in [2] was 6.18 nM. In addition, the “Cell-based functional assay (EC50, nM)” value in [3] came to 6.18 nM. For the same molecule, the Kd in assay [4] was found to be 2550 pM; in [5], 6570 pM; in assay [6], 2550 pM; in [7] it was 6570 pM. For the same molecule, the results for the koff in assay [6] and in assay [7] were 0.000401 s⁻¹ and 0.000793 s⁻¹, respectively. Also, the kon in [6] stood at 157000 M⁻¹ s⁻¹; in [7], 121000 M⁻¹ s⁻¹. For the same molecule, the EC50 in assay [8] turned out to be 190 pM; in [9] it was 130 pM; in [21], 0.281 ng/mL; in [13] it was 130 pM. Further, the IC50 amounted to 2220 pM in assay [14]; 330 pM in assay [15]; 330 pM in assay [16]; 170 pM in [17]; 1510 pM in [18]; 1510 pM in assay [19].
